Source: paper PMC6284238

Substrate: NC(=O)c1ccc[n+]([C@@H]2O[C@H](COP(=O)([O-])OP(=O)(O)OC[C@H]3O[C@@H](n4cnc5c(N)ncnc54)[C@H](O)[C@@H]3O)[C@@H](O)[C@H]2O)c1
Test: Michaelis-Menten kinetics of NAD+ cleavage by purified SARM1-TIR, HPLC
Type: biochemical, Homo sapiens
Conditions: E642 is a putative key catalytic residue within the active site

B1: SARM1-TIR (Homo sapiens) (protein)
chain: DTPDVFISYRRNSGSQLASLLKVHLQLHGFSVFIDVEKLEAGKFEDKLIQSVMGARNFVLVLSPGALDKCMQDHDCKDWVHKEIVTALSCGKNIVPIIDGFEWPEPQVLPEDMQAVLTFNGIKWSHEYQEATIEKIIRFLQGRS
**Q.** Which Km does the source give for B1 here?
**A.** Its Km is 24 µM.
